Results reported in the domain aggregation screens of Martell et al. (2025).

Assay: soluble fraction after stress (log2 fold change); higher = more stays soluble; pooled small domains, quantitative proteomics
Settings: stress: 50 degC
Procedure, shortened: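 Each library was heated to 50°C as a stress step. The libraries, made up of small protein domains, were pooled and analysed at high throughput by quantitative proteomics. The reported value is the base-two logarithm of the fold change in each protein's soluble amount after stress, taken as a measure of aggregation propensity. The higher the value, the more protein stays in solution.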

Sequence | soluble fraction (log2)
HMKTLGMDKGVNIALNDAGLRAEDVSNLSAHYDTEDGVPVYEIKFTAGGFSYEYQIKASDGTIIEADRDAA | -0.108
HMTVPAGIVLSSIRQDGDVLHIRGTAQSTERLNFFRNSFSASWGSPAQNGKRKADPVTGLVDFTISLK | -0.677
HMDAQNLQDQLFGFLKANPTQAYPAQTLADGLRLDDANAFTKVVQALAALERGGKVKVNEEGAFQYDAEK | 0.0478
HMLIELKIPSEWAGKSLHTLNLRQNYNVNVIGFRDEKSGKLNTHFDPSKKLPDEGIILVVADNRTLEKF | -0.837
HMNLGETIYNLRKEKKLSQGDLAEQLSVSRQSVSKWENNSAVPDLDKLVKLSTIFGVSLDELVKG | 0.0247
HMFIEHSKYKLSFKYNQLGKISNVINSNNGIIMDKHFDQNITLLAKLTENTFQEIIKHFPTIIIKRL | -3.19
HMESENANVNRAMLTGIASMHAGQLETALNKFNEVIQLAPDFAEGWNKRATIFYLMKKFDRSVNDIAQTLK | -0.0738
HMENITTILRSIKNEIKKNSTFVGDDFVNQARSMNQGQIKEKSIYGHGTKKEIEELRDEGVDVLNIPWIT | -0.162
HMPTAGYMTVTPDRVKEGQQFLATLRPPYVLKADGLAAGKGVLILPELEEAQRELEEMLGGFLGELSVNR | -0.0813
HMFFAGLSPEAARTLDSLPLHSWSSVEQIARQAGLNIETVRKELGLLELSGIALSRQGRFRRA | -0.549
HMGPIITKTYNLSYATARDVNDIIKSKKSARGDIVIDTRTNSLIVSDVQEKIDLIDEIVATL | -0.27
HMEDVTLSLVVGEDLDGERLDVFLTWKLDRTRSQVQALIRDGKVRLEQGQRARPSMVVRSGMGISVSLEPR | -1.49
HMSPLALLTPRELDILRAMTAGASNKEIARQFAIAETTVKIHVQHILRKLDVTTRVHAAVMASESGL | -2.66
HMGVKTDKYYYQMATETRVNKHYGLSNQYIATLISEYPRSPLIPNASILSKKNNADLALIDQSINQR | -0.397
HMLKLEDIKKDAQVKGIVDGQIVRIVTVEPIGDHALTVYYKDHQGQFAERMLFRSDELNLELATA | -0.00641
HMSEQLHALIDRLDDIPDDELKKNWPGTLRDLVDVISAELHRQGIEPAQAGMLARKVAAAQAGYMG | -0.344
HMNMSVVEKVIQQISNPGRDSLIPILQAVQEEEGFISRESVIEIGKALDLPASKIYGVATFYNQFR | -0.338
HMADYSMDDNAWNAKKADIDEWFEANPDFSANKAITDGLFSIGDSQVEMRKRYWASIAGVFAGLPNSPIG | -0.152
HMSAPGYRAVYPGMLESERQTAYELLSSSGFDVKINTSSGELEVTTDRYHEARMVMASQNIPK | 0.0432
HMSSDKVWSFEASGKQLQASYVAFENETVYLRASEDGSLLQFPLTDFGMKDQLVVLELYELSAKINRSN | -0.49
HMDERLLRLYERELQFLREGADEFAQAYPKVAGHLGLNSQSMGDPFIERLLEGLGFLTARIQLQLESEF | -0.0252
HMSRIDRKGLTSQIVNHLSKNPGKNFTLKQFFRNLKLNTHPLKMLAVDVLNKLLDTNFITRNEDGEFFLKA | 0.337
HMKGRPTTAIITDERTNLRSGPGATNKTIAQAGAGEKLAIIDEKDGWYQVSRAGINGWVAGWVIDVAW | -0.441

Sequence | soluble fraction (log2)
HMTGIKISVDRLQIGNYVKLPLNWKDHPFLFSSFAIKSQEEIDLIRRLGLKQVIMFPDKSSMPPKPV | -1.33
HMGLKWVYYTNIEPDGNKINNQKLYDILKQKFVYPVIISRDELDSMELKDLTYDSYIDVEGRYFKPYNLD | -2.23
HMSRAHTELEEKLLTMLEENDMTLPMRVISNIASRIEGIIIPEEKILEVLKKSYDRYREHQMD | 0.0257
HMGTIEEYSKYLINQYFDSLKKPMDAMTTSEKIEIVKSLDKKGIFNLKGSVGELAKRFNTSEKTIYRYLSS | 0.0367
HMKRITAVISQKKGRDYYYIIVSYYLSNGKRVQRWIKTEFPINGNNKRKLEQKRIEVLQEWQDKLV | -1.3
HMAAQDIILKRNAEQIEAIVKEITDTDVKYRKFTNTEGVTYSIRRSEVFSITYENGTMDLFA | 0.0231
HMKSVILQLHPETLRWIREEAQADMADASVIQLLNDWELGTKKPTLSQVQKLSHETHIPFGYFFLKEKPA | -0.45
HMTNVVSKNKAKEIAMNIINDTVLQGQTAATFKEIVKANGVYVVKIEIQGQEYTSYITKDGKIVFPYGVEV | -0.451
HMKDLDSLSQEAKSVYAVFSDKPIHIDDIKRKTGLDFSKLFKAVTELELAELISSGEGKMYSL | -0.0108
HMTGESVPAPLSGTIFKILVAPGEQVEEGQTVIILEAMKMETEISAPRSGVVGAINIKEGDSVQVGQSLFT | 0.0706
HMGAGLDDLVRKSLHNAGLKADDNVVSWISGNLGSDRMVSRMELEKLVLFVAGQSEITLEDAQAVIGD | -0.305
HMAQSTALVNLAQAEINKRGLTQTEVQARLSEEGINVNSISPAEYPKYQKQILSILDQMQKEKQLSKEV | 0.412
HMRSKTSYAVWTPIQIDAGSQMQALQSKGFNTVLMEGGISVGIRSDKAQAQALLNRLQGAGFTGQLREVN | -0.183
HMSASTGTVSYKSGATTVWNSPSWHQVKRYVTFGDTVQLLGKTVDQNGATWYKVGDNQWIPELYLNVAG | -0.508
HMDPPISNDARNAINAKLMKFSELHPNEMKKLVEAYKKEFKVSKISPITLARQGEFLSHAISKIDDT | 0.0248
HMFGNTGETSGTGVAFTRSPVDGENKIFGEFLVNAQGEDVVAGIRTPQPISEMEQAFPEVYSKFESVAEIL | 0.0862
HMGAEIRDKVRAALAGLNPRAAEIFVMRYFDGYGNREIARLLNTSWSTIAVTLHRTRAKLQKELK | -0.101
HMGTSFEDIDRAVKSVRKPETDEAEKLHAGKTFKDIAETELFQKLTESFAGISDRVNEVIDLYTARAAE | 0.143
HMSDIYSLFERELGRTLSSYEYEIIGKWIEKGVSEDTIKRALKEAILNGVTNFKYIDKIIYDWSKN | -0.499
HMQDVVFTVDKDQTGAEIGDMLYEKGIISSPTTFRLALRLTGSMDKLQQGYYQIPQNASLRQVIALLQKG | -0.393
HMQNYLEVLRLHELGMGQRKIAQQVHTSRDTIRKIIAIAENQGLNYSNLIGKTDNELSKVFG | -0.307
HMEALSAREIEILQALETGASNRELAKMLFISEATVKTHLVHIYQKLGVGTRTAAITEARERRV | -1.64
HMRKTLASTAYDSIKAGIVSGEINNNLLLSENTLAKILNMSRTPIREAIKRLEAESYLKSVDGVGLIVQE | -0.211

Sequence | soluble fraction (log2)
HMGGLAHPASGEEMEHLFAHLEGELLKSGFLFPPDKAAGMMRNIRAMLTRADFTDQEVRTLRGMIVALSRG | -1.66
HMTFNLDVDGDDQVTALGDGLMIIRKLFGATFAGDALTNKAISPDATRTTDEIHAYIEKGITSGVLD | -0.268
HMSHRVGDVVELTAVRMNDQGVFLDAGTGNTSDDILLHKHQMTSPVSVGDKVKVQLYLDAKNRITASMKL | -0.000204
HMELSVTDRTRQIRHILKEKGRVEFTSLFEELTKPYVIVTFLSVLEMSKNNELMITQDKTFGSITLEMKG | -0.569
HMGTTKGVVDVTVPNGRASQHVKLVVIDDDGGRVVYDGTNAPGDRIVKSVSGSGNVRVQIYLNNALVQEQS | -0.2
HMGDWEKALAQFAAHRLANGSTAFLDEMYPIFERILLQAALNKTGGRKIEAAELLGWGRNTLTRKLKELGF | -2.2
HMNNKVAVKSGYYFEIFNKEEIPTTLAKTKQKVKINNIQYDLYQGMSLDDERKIDDMFGDRMGYSIDDY | -1.04
HMDVNAQAGYDKLQSNQLDGARHDYEQALKTDPNNVDTLLALAAIAQRQGRSADADGYRQRAIDAD | -0.124
HMSSLDTLTARETQILAEMAQGKNNAAIAAAVSVSERAVEKHTNSIFAKLGLSEEKDVNRRVMAVLLFLGR | -3.28
HMTQDFEPGGQVFSRGEWLTIIRVNKSNGAVSSVTTPNYSFLGYSGTMKVTPDRITDYKAPSAEEAAVAS | -0.281
HMGTVQSVDRALLLLSEIGREPGGLVDLSTRVRLATSTTGRILATLEHAGAVVRGDDGIYHIGPLVHGMVS | -0.839
HMRDISTDTSAWTFQDIKRYYDPQDLLTEKQVGQALSLIKGRNLNPLLNEVYIVAYKKKNGGAEFSLIV | -0.28
HMNPETLTNSSVIKMSKANLSDELITDMILNSPVKFDLSAGAIKTLESEGVTPAVLESMKNAASK | 0.154
HMTEALEFTVEDLRMAGLVNSSFSRRRRELFSEKLGIGYGNGKSLLKKLNGYGITREEFNGAIQSLSD | -0.747
HMISFLNFVRKEIDASQLKDSTKQNHLTTIGLLQSFKPSIEFKDLNYNFITSFEKYLYDAGYQM | 0.133
HMNDNQNKQMLWELLKDNRAFDNFDNKDYKTIIHLFNETVNTIDHRTPNLDLIKKNKIFIQDIMQKLSNL | -1.13
HMTKIKAIFFDIDGTIRSFKTKTIPENTANTLKKLKEQGIKIFIATGRAPFHTTFLNDLLDFKFDGYITIN | -0.282
HMSETEEWTVEGGQAGDRIDRHVAAMLGDDVSRSQVQQWIRAGRVTVNGRAVKPSDTVEEGDRVAVDLPEP | 0.0588
HMGTTAWISTKTANGSVNIRTGPGTGYGVIGWALNGDKLEVLSRGTSWHYVKLVKNGKIGYVSASYVSFTQ | -0.193
HMGQPAVSSRDVAEQFGKEHRNVIQSIKNLIAENSALTFMFIEDTYTAGTGKKYPMYYMNRDGFTLLA | 0.224
HMGQLSDREALTVLAREALVELPRAAGDYRNGRTAALQSLVGRVMRKTAGRGNPALLQEIFRSLL | -0.436
HMSDYKSYLQELVQTDKKSLSYNVVKETGPAHDKTFEVEVEVDGIIYAHGVGKSKKEAEQNAAKNAIMISA | 0.149
